Reference: patent US20160136262A1

Key:
[1] = target: T1, H1-mini2-cluster1+5+6-GCN4 without leader sequence and with FLAG-thrombin-foldon-HIS (SEQ ID NO: 6); experiment: ELISA/HTRF ratio, reference itself; conditions: remark: other sources report otherwise
[2] = target: T1, H1-mini2-cluster1+5+6-GCN4 without …; experiment: ELISA signal over HTRF expression signal; average (AV); conditions: remark: other sources report otherwise

B1: CR6261 (antibody, V domains shown)
VH: EVQLVESGAEVKKPGSSVKVSCKASGGPFRSYAISWVRQAPGQGPEWMGGIIPIFGTTKYAPKFQGRVTITADDFAGTVYMELSSLRSEDTAMYYCAKHMGYQVRETMDVWGKGTTVTVSS
VL: QSVLTQPPSVSAAPGQKVTISCSGSSSNIGNDYVSWYQQLPGTAPKLLIYDNNKRPSGIPDRFSGSKSGTSATLGITGLQTGDEANYYCATWDRRPTAYVVFGGGTKLTVLG
How did the fold increase of ratio over parental H1 mini-HA [1] turn out when B1 was run?
The fold increase of ratio over parental H1 mini-HA was 1 fold.

And the ratio binding/HTRF signal [2]?
Its ratio binding/HTRF signal is 5.94.
